{"source": "paper PMC3948464", "about": "(Nature Communications, 2014)", "target": "GST-AK2 (glutatione S-transferase-adenylate kinase 2) (human, UniProt P54819 1-239)", "assay": "SEC", "data": [{"binder": "His-DUSP26 (enzyme) MCPGNWLWASMTFMARFSRSSSRSPVRTRGTLEEMPTVQHPFLNVFELERLLYTGKTACNHADEVWPGLYLGDQDMANNRRELRRLGITHVLNASHSRWRGTPEAYEGLGIRYLGVEAHDSPAFDMSIHFQTAADFIHRALSQPGGKILVHCAVGVSRSATLVLAYLMLYHHLTLVEAIKKVKDHRGIIPNRGFLRQLLALDRRLRQGLEA", "values": [{"measurement": "binding result", "value": "binds"}]}]}
